The supplement of paper PMC10126150
± gives the standard deviation of the averaged measurements.

Test system: ATP
Experiment: switch fluorescence ratio, 500 uM ATP over buffer (Cy3 cluster intensity, sum of 5 cycles each) (fold (ratio)); higher = stronger signal-on switching upon ATP binding; sequences stand for … in TCGTCGGCAGCGTCAGATGTGTATAAGAGACAGTTTTTTTTTTTTTTTTTTTTTTTTT…TC
Conditions: aptamer strand: ATP DNA aptamer (quencher-CACCTGGGGGAGTATTGCGGAGGAAGG + anchor), 100 nM annealed; ATP concentration: 500 uM
Procedure, shortened: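 Per cluster, summed Cy3 intensity from the target cycles was divided by that from the buffer cycles to give the fluorescence ratio, then averaged per switch-domain sequence. Clusters outside 100-1000 RFU were excluded. The Cy3-labelled switching-strand clusters, on a modified Illumina MiSeq flow-cell, were annealed to 100 nM quencher-labelled ATP aptamer and imaged in selection buffer, then after 15 min with 500 uM ATP at 22 °C, for five cycles with NaOH stripping and re-annealing between them.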
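Further: ATP exposure 15 min at 22 °C before imaging.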

| Sequence | switch fluorescence ratio |
| --- | --- |
| AGTTGGAGTT | 0.978 ± 0.043 |
| AGTTGGGGCT | 1.01 ± 0.023 |
| AGTTGGGTCA | 0.993 ± 0.044 |
| AGTTGGGTGT | 1.01 ± 0.013 |
| AGTTGTGCGT | 0.981 ± 0.012 |
| AGTTGTTGGT | 1.01 ± 0.014 |
| AGTTGTTTG | 1.002 ± 0.0099 |
| AGTTGTTTTG | 0.998 ± 0.015 |
| AGTTTAAGAA | 0.98 ± 0.031 |
| AGTTTAGAAT | 1.001 ± 0.0052 |
| AGTTTAGGTA | 1.01 ± 0.052 |
| AGTTTATCGT | 1.03 ± 0.043 |
| AGTTTGACCT | 1.15 ± 0.032 |
| AGTTTGACTC | 0.997 ± 0.026 |
| AGTTTGCTTT | 0.995 ± 0.035 |
| AGTTTGGGTG | 1.01 ± 0.0051 |
| AGTTTGTCAT | 0.967 ± 0.032 |
| AGTTTTCCAT | 1.0004 ± 0.00055 |
| AGTTTTGGGC | 0.976 ± 0.016 |
| AGTTTTGGTC | 1.002 ± 0.0056 |
| AGTTTTTGGG | 0.97 ± 0.037 |
| ATAAAAAATC | 0.986 ± 0.017 |
| ATAAAAATCG | 0.989 ± 0.027 |
| ATAAAACGC | 1.04 ± 0.071 |
| ATAAAATTGG | 0.988 ± 0.034 |

| Sequence | switch fluorescence ratio |
| --- | --- |
| ATAAACGGCG | 1.01 ± 0.024 |
| ATAAACGGCT | 1.01 ± 0.021 |
| ATAAACGGGG | 0.9917 ± 0.001 |
| ATAAACGTTT | 1.018 ± 0.0069 |
| ATAAACTTGG | 1.01 ± 0.033 |
| ATAAAGAGAG | 1.01 ± 0.023 |
| ATAAAGCGAT | 1.06 ± 0.023 |
| ATAAAGGAAG | 0.99 ± 0.011 |
| ATAAAGTCAC | 1.16 ± 0.18 |
| ATAAATGAGG | 1.01 ± 0.014 |
| ATAAATTTTT | 1.01 ± 0.023 |
| ATAACAAACT | 1.05 ± 0.012 |
| ATAACACGGC | 1.05 ± 0.1 |
| ATAACGCAGT | 1.0027 ± 0.00069 |
| ATAACGTTCG | 1.06 ± 0.052 |
| ATAACGTTTT | 1.02 ± 0.019 |
| ATAACTACTA | 1.06 ± 0.015 |
| ATAAGACCGT | 1.015 ± 0.0046 |
| ATAAGATGCC | 0.963 ± 0.014 |
| ATAAGGAGGG | 1 ± 0.01 |
| ATAAGGATAG | 1 ± 0.011 |
| ATAAGGATGG | 0.9788 ± 0.0034 |
| ATAAGGCTTT | 0.989 ± 0.029 |
| ATAAGGGGAT | 0.983 ± 0.023 |
| ATAAGTGATC | 0.981 ± 0.069 |

| Sequence | switch fluorescence ratio |
| --- | --- |
| ATAAGTGATG | 0.995 ± 0.025 |
| ATAAGTGCAA | 1.06 ± 0.011 |
| ATAAGTTAAG | 0.999 ± 0.013 |
| ATAATATAAC | 1 ± 0.018 |
| ATAATCATTT | 1.02 ± 0.021 |
| ATAATGCAGG | 1 ± 0.032 |
| ATAATGTCGC | 0.9702 ± 0.0012 |
| ATAATTAAGG | 0.99 ± 0.028 |
| ATAATTATGC | 1.025 ± 0.0052 |
| ATAATTCATC | 1 ± 0.013 |
| ATAATTGGCC | 0.97422 ± 0.00035 |
| ATAATTGGGG | 0.98 ± 0.026 |
| ATAATTGGGT | 0.993 ± 0.022 |
| ATAATTTAGG | 0.9859 ± 0.0029 |
| ATAATTTATT | 0.996 ± 0.012 |
| ATAATTTCAA | 0.999 ± 0.017 |
| ATAATTTGAC | 1.04 ± 0.058 |
| ATAATTTTAG | 0.999 ± 0.031 |
| ATAATTTTTT | 1.03 ± 0.063 |
| ATACAAGGGG | 1.03 ± 0.033 |
| ATACAGGGCT | 1.01 ± 0.029 |
| ATACATAACG | 1.38 ± 0.052 |
| ATACATTGTC | 0.978 ± 0.074 |
| ATACCAATGA | 1.05 ± 0.029 |
| ATACCAGTG | 1.12 ± 0.055 |

| Sequence | switch fluorescence ratio |
| --- | --- |
| ATACCTCTTG | 0.992 ± 0.022 |
| ATACCTGGTC | 1.053 ± 0.0017 |
| ATACGAATTC | 1.01 ± 0.049 |
| ATACGCCGGT | 1.013 ± 0.004 |
| ATACGGGGCT | 1.03 ± 0.027 |
| ATACGTTTCG | 0.998 ± 0.03 |
| ATACTACGGA | 1.03 ± 0.062 |
| ATACTATTTT | 0.996 ± 0.023 |
| ATACTCAACA | 1.248 ± 0.0099 |
| ATACTCTATT | 1.07 ± 0.025 |
| ATACTGAGGC | 0.999 ± 0.029 |
| ATACTGGACT | 1.201 ± 0.0084 |
| ATACTTATTG | 0.99646 ± 0.0008 |
| ATAGAAGCGG | 0.9684 ± 0.0029 |
| ATAGAATCAG | 0.975 ± 0.038 |
| ATAGAATGTG | 1.007 ± 0.0082 |
| ATAGAGGAGA | 0.992 ± 0.048 |
| ATAGAGTGCG | 0.957 ± 0.024 |
| ATAGATTAGT | 0.996 ± 0.035 |
| ATAGCGCCG | 1.03 ± 0.035 |
| ATAGCTGGTT | 0.991 ± 0.018 |
| ATAGGAGTAT | 1.01 ± 0.026 |
| ATAGGATCTT | 0.996 ± 0.028 |
| ATAGGCAGAG | 1.003 ± 0.0083 |
| ATAGGCGGGA | 0.9932 ± 0.00079 |

| Sequence | switch fluorescence ratio |
| --- | --- |
| ATAGGGCCTT | 1.02 ± 0.05 |
| ATAGGGGCGG | 0.978 ± 0.035 |
| ATAGGGGGGA | 1.01 ± 0.018 |
| ATAGGGGTT | 1.021 ± 0.005 |
| ATAGGGTTGC | 1.01 ± 0.014 |
| ATAGGTACGC | 1.04 ± 0.036 |
| ATAGGTATGT | 0.998 ± 0.023 |
| ATAGGTTTGG | 0.97 ± 0.014 |
| ATAGGTTTGT | 0.989 ± 0.013 |
| ATAGGTTTTA | 0.976 ± 0.017 |
| ATAGTAAGTA | 0.996 ± 0.024 |
| ATAGTAGGTA | 0.99137 ± 0.00055 |
| ATAGTATGGT | 0.9976 ± 0.0089 |
| ATAGTCAAAC | 1.027 ± 0.0025 |
| ATAGTCATAT | 0.9978 ± 0.0017 |
| ATAGTCCTCC | 1.2 ± 0.0043 |
| ATAGTGAGTT | 1 ± 0.016 |
| ATAGTGATGT | 0.995 ± 0.04 |
| ATAGTGGGGC | 1.056 ± 0.0054 |
| ATAGTGGGGG | 0.975 ± 0.017 |
| ATAGTGTGGC | 0.952 ± 0.029 |
| ATAGTTTTCC | 1 ± 0.024 |
| ATATAAGCCC | 1.02 ± 0.021 |
| ATATAAGGGT | 1.02 ± 0.015 |
| ATATAAGTTC | 1.06 ± 0.055 |

| Sequence | switch fluorescence ratio |
| --- | --- |
| ATATACGTTG | 1.03 ± 0.011 |
| ATATAGGGGG | 0.997 ± 0.014 |
| ATATATAGCC | 1.01 ± 0.022 |
| ATATATCTAG | 0.998 ± 0.029 |
| ATATATGGGA | 0.973 ± 0.022 |
| ATATATGGTT | 0.988 ± 0.036 |
| ATATATGTTT | 0.9649 ± 0.0016 |
| ATATATTGGC | 1.02 ± 0.054 |
| ATATATTTGT | 1.008 ± 0.0041 |
| ATATCAAAAT | 1.01 ± 0.013 |
| ATATCAATGT | 1 ± 0.028 |
| ATATCAGTTC | 1.012 ± 0.0091 |
| ATATCATCGG | 0.964 ± 0.025 |
| ATATCCTCCC | 1.35 ± 0.016 |
| ATATCGCTGA | 0.987 ± 0.013 |
| ATATCGGAGG | 0.99 ± 0.041 |
| ATATCGGATG | 1.071 ± 0.0078 |
| ATATCGTTGA | 0.978 ± 0.021 |
| ATATCTCCGG | 1.07 ± 0.014 |
| ATATGAAAGT | 0.977 ± 0.024 |
| ATATGAATGA | 1.01 ± 0.015 |
| ATATGATAGA | 0.9921 ± 0.0026 |
| ATATGCATAG | 1.05 ± 0.051 |
| ATATGCTATC | 1.02 ± 0.014 |
| ATATGCTGGT | 0.982 ± 0.014 |

| Sequence | switch fluorescence ratio |
| --- | --- |
| ATATGCTGTA | 0.989 ± 0.032 |
| ATATGGAAAT | 1.006 ± 0.0027 |
| ATATGGAGTT | 0.943 ± 0.022 |
| ATATGGGTGG | 1.01 ± 0.016 |
| ATATGGTATT | 0.99 ± 0.023 |
| ATATGTATGA | 1.003 ± 0.0037 |
| ATATGTCAGA | 0.9958 ± 0.0056 |
| ATATGTCGCT | 1.01 ± 0.026 |
| ATATGTGGTG | 1.02 ± 0.028 |
| ATATGTTTGG | 1.01 ± 0.018 |
| ATATTACGGG | 1.03 ± 0.039 |
| ATATTAGGCA | 1.01 ± 0.037 |
| ATATTATTAC | 1.06 ± 0.016 |
| ATATTATTGT | 0.9911 ± 0.0085 |
| ATATTCCACA | 0.9984 ± 0.0093 |
| ATATTCTTGT | 1.009 ± 0.0095 |
| ATATTCTTTT | 1.03 ± 0.091 |
| ATATTGACGG | 1.09 ± 0.12 |
| ATATTGAGAT | 0.998 ± 0.037 |
| ATATTGAGGG | 1.01 ± 0.00033 |
| ATATTGCGTT | 1.01 ± 0.02 |
| ATATTGGATT | 0.994 ± 0.018 |
| ATATTGGGGC | 0.993 ± 0.017 |
| ATATTGGTTA | 0.9923 ± 0.0052 |
| ATATTGGTTT | 0.997 ± 0.011 |

| Sequence | switch fluorescence ratio |
| --- | --- |
| ATATTGTTGG | 0.972 ± 0.031 |
| ATATTGTTTT | 1.02 ± 0.019 |
| ATATTTACGG | 1.079 ± 0.0071 |
| ATATTTCATT | 0.961 ± 0.012 |
| ATATTTCCTA | 0.989 ± 0.033 |
| ATATTTGTTT | 0.993 ± 0.022 |
| ATATTTTGAC | 1.05 ± 0.061 |
| ATATTTTTTA | 0.9761 ± 0.0095 |
| ATATTTTTTG | 0.978 ± 0.024 |
| ATCAAACGAG | 1.006 ± 0.0073 |
| ATCAAACTCG | 0.979 ± 0.029 |
| ATCAAAGAAC | 1.05 ± 0.042 |
| ATCAACTTAT | 1.02 ± 0.044 |
| ATCAAGGATG | 1.03 ± 0.038 |
| ATCAATGTGC | 0.962 ± 0.088 |
| ATCAATTGTT | 0.989 ± 0.015 |
| ATCACAAATA | 1.02 ± 0.024 |
| ATCACAGCTA | 1.04 ± 0.017 |
| ATCACTCTTT | 1.02 ± 0.058 |
| ATCAGAGTGC | 1.03 ± 0.06 |
| ATCAGCGATC | 2.24 ± 0.22 |
| ATCAGCGTTT | 1.012 ± 0.0092 |
| ATCAGGATCG | 1.01 ± 0.014 |
| ATCAGGGCGT | 0.987 ± 0.032 |
| ATCAGGGGGA | 0.997 ± 0.02 |
